Results taken from US20240010735A1 (EISAI R AND D MANAGEMENT, published 2024).

Columns and labels:
Assay in all cases: ELISA: Fc-His proteins (1 nM) captured on anti-6-His antibody, antibody A 10 µg/mL with human IgG 100 µg/mL, HRP anti-mouse IgG, OD450 as % of mouse EphA4-Fc-His
[1] = biological target: T1, mouse EphA1 extracellular region-Fc-His protein (mouse; human, UniProt Q60750 27-548)
T1 construct: extracellular domain; not shown: Fc region of human IgG1; histidine tag
T1 sequence (looked up): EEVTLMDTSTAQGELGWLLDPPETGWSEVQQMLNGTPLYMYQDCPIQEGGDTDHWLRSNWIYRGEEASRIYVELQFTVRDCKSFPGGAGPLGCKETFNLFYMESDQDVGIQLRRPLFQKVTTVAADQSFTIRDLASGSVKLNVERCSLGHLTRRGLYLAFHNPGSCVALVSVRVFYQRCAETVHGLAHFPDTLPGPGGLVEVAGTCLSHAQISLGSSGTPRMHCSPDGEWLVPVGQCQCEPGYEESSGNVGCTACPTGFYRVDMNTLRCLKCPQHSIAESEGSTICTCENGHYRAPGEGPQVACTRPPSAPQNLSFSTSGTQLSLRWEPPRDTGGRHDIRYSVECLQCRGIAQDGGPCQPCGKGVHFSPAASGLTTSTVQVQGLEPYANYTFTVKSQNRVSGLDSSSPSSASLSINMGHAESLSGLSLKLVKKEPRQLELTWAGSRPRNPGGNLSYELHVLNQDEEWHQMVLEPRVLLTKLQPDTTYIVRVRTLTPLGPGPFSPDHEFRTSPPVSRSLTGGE
Procedure: (§1) Rabbit anti-6-His antibodies (Bethyl Laboratories) were coated onto the wells of a 96-well plate (Nunc). After incubating at 4° C. overnight, the wells were blocked at room temperature for 1 hour by 1% Block Ace (DS Pharma Biomedical). After washing 3 times with 0.05% Tween 20/PBS (Thermo […]), each Eph receptor of mouse extracellular region-Fc-His protein (final concentration 1 nM) was seeded into each well, and incubated at room temperature for 1 hour. After washing 3 times, human IgG solution (100 μg/mL, Sigma) and antibody A (10 μg/mL) were supplemented to the wells, and incubated at room temperature for 1 hour. Horseradish peroxidase-labeled donkey anti-mouse IgG antibody (Jackson ImmunoResearch Laboratories) was added, and incubated at room temperature for 1 hour. After washing 3 times, TMBZ (3,3′,5,5′-tetramethylbenzidine, Sigma) solution was added to the wells, and upon confirmation of modest coloring, an equal amount of quenching solution (1 N H₂SO₄, Wako Pure Chemicals) was added to the wells, and absorbance at 450 nm was read by a microplate reader (PerkinElmer).

[2] = biological target: T2, mouse EphB1 extracellular region-Fc-His protein (mouse; human, UniProt Q8CBF3 18-540)
T2 construct: extracellular domain; not shown: Fc region of human IgG1; histidine tag
T2 sequence (looked up): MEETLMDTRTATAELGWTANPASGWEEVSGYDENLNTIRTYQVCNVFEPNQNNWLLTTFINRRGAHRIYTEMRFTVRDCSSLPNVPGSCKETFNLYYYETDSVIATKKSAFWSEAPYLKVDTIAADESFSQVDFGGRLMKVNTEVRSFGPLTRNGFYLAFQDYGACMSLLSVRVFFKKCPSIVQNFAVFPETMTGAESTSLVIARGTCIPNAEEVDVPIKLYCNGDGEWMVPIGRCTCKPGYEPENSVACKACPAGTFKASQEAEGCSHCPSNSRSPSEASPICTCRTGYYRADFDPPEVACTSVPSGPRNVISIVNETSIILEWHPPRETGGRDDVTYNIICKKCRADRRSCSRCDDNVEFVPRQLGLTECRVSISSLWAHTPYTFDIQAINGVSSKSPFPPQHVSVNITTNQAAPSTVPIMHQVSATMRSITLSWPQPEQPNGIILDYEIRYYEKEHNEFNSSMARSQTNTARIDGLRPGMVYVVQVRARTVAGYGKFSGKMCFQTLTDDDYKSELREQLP
Procedure: as §1

[3] = biological target: T3, mouse EphA7 extracellular region-Fc-His protein (mouse; human, UniProt Q61772 28-555)
T3 construct: extracellular domain; not shown: Fc region of human IgG1; histidine tag
T3 sequence (looked up): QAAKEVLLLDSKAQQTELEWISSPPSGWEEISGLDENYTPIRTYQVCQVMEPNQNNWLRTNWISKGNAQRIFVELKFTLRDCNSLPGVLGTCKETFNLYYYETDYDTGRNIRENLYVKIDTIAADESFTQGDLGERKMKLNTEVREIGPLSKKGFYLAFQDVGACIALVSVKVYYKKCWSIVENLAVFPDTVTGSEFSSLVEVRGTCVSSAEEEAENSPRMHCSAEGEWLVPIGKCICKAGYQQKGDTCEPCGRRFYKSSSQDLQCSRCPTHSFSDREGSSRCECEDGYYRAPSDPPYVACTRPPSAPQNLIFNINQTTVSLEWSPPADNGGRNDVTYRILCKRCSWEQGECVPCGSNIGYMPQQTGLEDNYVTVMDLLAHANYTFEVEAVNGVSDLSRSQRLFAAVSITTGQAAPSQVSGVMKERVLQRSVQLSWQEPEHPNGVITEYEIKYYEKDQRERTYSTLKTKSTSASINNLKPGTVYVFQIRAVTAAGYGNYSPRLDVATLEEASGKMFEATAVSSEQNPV
Procedure: as §1

Measured: binding result

B1: mouse anti-EphA4 monoclonal antibody (antibody A) (antibody, mouse IgG1, kappa, V domains shown)
VH: QVQLKQSGPSLVQPSQSLSITCTVSGFSLTRYGVHWVRQSPGKGLEWLGVIWRGGSTDYNAAFMSRLSITKDNSKSQVFFKMNSLQADDTAIYYCAKESLFGVYYDYGYYSMDYWGQGTSVTVSS
VL: DIQMTQSPSSLSASLGERVSLTCRASQEISGYLSWLQQKPDGTIKRLIYAASTLDSGVPKRFSGSRSGSDYSLTISSLESEDFADYYCLQYASYPLTFGAGTKLELKR
notes: purified from hybridoma supernatant
no binding (tested: 10 µg/mL): all assays above
